Data published in article PMC4021362.
pKd: −log10 of the molar value.

Tested on: Hydra Myc2 p15;Hydra Max p22 (Hydra magnipapillata?;Hydra magnipapillata?)
Assay: EMSA
Conditions: equimolar mixture, heterodimer; EMSA with 0.3 ng (25,000 cpm) 32P-labeled 18-mer dsDNA; binding buffer, salt, pH and temperature not given in the material

**Q.** How did the pKd turn out when E-box USF 18-mer was run?
**A.** Its pKd is 7.76.
